# Experimental data published in patent US20260042817A1 (PROVIDENCE HEALTH AND SERVICES OREGON, published 2026).
# B1: Fc:TβRII recombinant protein (glycosylated) (Fc fusion)
# chain: TIPPHVQKSVNNDMIVTDNNGAVKFPQLCKFCDVRFSTCDNQKSCMSNCSITSICEKPQEVCVAVWRKNDENITLETVCHDPKLPYHDFILEDAASPKCIMKEKKKPGETFFMCSCSSDECNDNIIFSEEYNTSNPDLLLVIFQSSSTMVRSVECPPCPAPPVAGPSVFLFPPKPKDTLMISRTPEVTCVVVDVSHEDPEVQFNWYVDGMEVHNAKTKPREEQFNSTFRVVSVLTVVHQDWLNGKEYKCKVSNKGLPAPIEKTISKTKGQPREPQVYTLPPSREEMTKNQVSLTCLVKGFYPSDIAVEWESNGQPENNYKTTPPMLDSDGSFFLYSKLTVDKSRWQQGNVFSCSVMHEALHNHYTQKSLSLSPGK
# modifications: N-glycosylated (expressed in HEK 293T cells); sites not stated
# notes: Purified on Protein A from HEK 293T supernatant; also called Fc:TβRII protein; unconjugated Fc:TβRII protein
# Molecular target: T1, recombinant TGFβ (Homo sapiens (Human), UniProt P01137 279-390, Active TGFβ is a disulfide-linked homodimer ('TGFβ exists as a dimer'). One protomer is given; the assay form is two identical copies.)
# T1 construct: also called TGF-beta; transforming growth factor beta
# Assay: solution incubation of TGFβ (500 pg/mL) with a range of Fc:TβRII concentrations, 20 min at room temperature; remaining unbound TGFβ read on an anti-TGFβ1 ELISA plate
# Procedure: The Fc:TβRII recombinant protein (glycosylated) was tested in vitro using enzyme-linked immunosorbent assay (ELISA) to verify a selective and high binding affinity for TGFβ. A known quantity of recombinant TGFβ (500 pg/mL) was incubated with a range of concentrations of Fc:TβRII in aqueous solution at room temperature for 20 minutes. Aliquots from each sample were applied to an anti-TGFβ1 ELISA plate to measure the remaining unbound TGFβ.
# T1 sequence (P01137 279-390 limits assumed, form in doubt): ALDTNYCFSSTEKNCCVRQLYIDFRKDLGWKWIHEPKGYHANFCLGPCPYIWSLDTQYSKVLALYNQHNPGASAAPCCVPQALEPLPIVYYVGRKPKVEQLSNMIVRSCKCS
binder,measurement,value
B1,IC50,0.27 µg/mL
